PMC7758880 (Molecular Cell, 2020)

T1: Smc6 with a triple StrepII tag (S. cerevisiae, UniProt Q12749 1-1114)
T1 sequence: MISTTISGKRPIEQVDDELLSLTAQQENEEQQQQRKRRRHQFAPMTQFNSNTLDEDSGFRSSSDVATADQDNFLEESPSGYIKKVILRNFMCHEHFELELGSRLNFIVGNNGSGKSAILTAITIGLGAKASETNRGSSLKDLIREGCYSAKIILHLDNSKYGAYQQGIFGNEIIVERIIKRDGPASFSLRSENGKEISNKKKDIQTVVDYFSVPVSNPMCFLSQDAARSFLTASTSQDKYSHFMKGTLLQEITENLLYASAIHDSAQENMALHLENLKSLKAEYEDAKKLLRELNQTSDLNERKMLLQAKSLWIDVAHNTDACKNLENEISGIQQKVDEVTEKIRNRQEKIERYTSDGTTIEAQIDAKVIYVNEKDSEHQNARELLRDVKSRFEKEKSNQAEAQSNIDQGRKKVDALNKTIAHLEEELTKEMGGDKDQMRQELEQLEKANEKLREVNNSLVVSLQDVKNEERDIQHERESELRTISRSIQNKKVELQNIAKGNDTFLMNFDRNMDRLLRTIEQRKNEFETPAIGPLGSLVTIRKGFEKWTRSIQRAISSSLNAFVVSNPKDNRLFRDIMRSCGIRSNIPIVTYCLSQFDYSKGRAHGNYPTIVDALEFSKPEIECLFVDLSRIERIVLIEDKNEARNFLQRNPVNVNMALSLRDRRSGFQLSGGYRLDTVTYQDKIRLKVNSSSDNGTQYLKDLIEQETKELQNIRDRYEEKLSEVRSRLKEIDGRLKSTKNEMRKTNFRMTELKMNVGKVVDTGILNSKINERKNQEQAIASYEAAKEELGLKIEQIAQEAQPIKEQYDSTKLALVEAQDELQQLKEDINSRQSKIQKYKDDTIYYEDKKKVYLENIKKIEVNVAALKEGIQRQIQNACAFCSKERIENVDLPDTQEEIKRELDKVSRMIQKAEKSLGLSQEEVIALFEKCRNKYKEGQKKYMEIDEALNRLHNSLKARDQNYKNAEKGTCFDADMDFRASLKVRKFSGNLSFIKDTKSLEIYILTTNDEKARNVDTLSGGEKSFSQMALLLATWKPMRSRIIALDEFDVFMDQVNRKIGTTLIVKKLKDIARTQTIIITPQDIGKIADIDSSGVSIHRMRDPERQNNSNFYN

B1: Nse2 (enzyme)
chain: MALNDNPIPKSVPLHPKSGKYFHNLHARDLSNIYQQCYKQIDETINQLVDSTSPSTIGIEEQVADITSTYKLLSTYESESNSFDEHIKDLKKNFKQSSDACPQIDLSTWDKYRTGELTAPKLSELYLNMPTPEPATMVNNTDTLKILKVLPYIWNDPTCVIPDLQNPADEDDLQIEGGKIELTCPITCKPYEAPLISRKCNHVFDRDGIQNYLQGYTTRDCPQAACSQVVSMRDFVRDPIMELRCKIAKMKESQEQDKRSSQAIDVL
B2: Smc5 (natural protein)
chain: MTSLIDLGRYVERTHHGEDTEPRSKRVKIAKPDLSSFQPGSIIKIRLQDFVTYTLTEFNLSPSLNMIIGPNGSGKSTFVCAVCLGLAGKPEYIGRSKKVEDFIKNGQDVSKIEITLKNSPNVTDIEYIDARDETIKITRIITRSKRRSDYLINDYQVSESVVKTLVAQLNIQLDNLCQFLSQERVEEFARLKSVKLLVETIRSIDASLLDVLDELRELQGNEQSLQKDLDFKKAKIVHLRQESDKLRKSVESLRDFQNKKGEIELHSQLLPYVKVKDHKEKLNIYKEEYERAKANLRAILKDKKPFANTKKTLENQVEELTEKCSLKTDEFLKAKEKINEIFEKLNTIRDEVIKKKNQNEYYRGRTKKLQATIISTKEDFLRSQEILAQTHLPEKSVFEDIDIKRKEIINKEGEIRDLISEIDAKANAINHEMRSIQRQAESKTKSLTTTDKIGILNQDQDLKEVRDAVLMVREHPEMKDKILEPPIMTVSAINAQFAAYLAQCVDYNTSKALTVVDSDSYKLFANPILDKFKVNLRELSSADTTPPVPAETVRDLGFEGYLSDFITGDKRVMKMLCQTSKIHTIPVSRRELTPAQIKKLITPRPNGKILFKRIIHGNRLVDIKQSAYGSKQVFPTDVSIKQTNFYQGSIMSNEQKIRIENEIINLKNEYNDRKSTLDALSNQKSGYRHELSELASKNDDINREAHQLNEIRKKYTMRKSTIETLREKLDQLKREARKDVSQKIKDIDDQIQQLLLKQRHLLSKMASSMKSLKNCQKELISTQILQFEAQNMDVSMNDVIGFFNEREADLKSQYEDKKKFVKEMRDTPEFQSWMREIRSYDQDTKEKLNKVAEKYEEEGNFNLSFVQDVLDKLESEIAMVNHDESAVTILDQVTAELRELEHTVPQQSKDLETIKAKLKEDHAVLEPKLDDIVSKISARFARLFNNVGSAGAVRLEKPKDYAEWKIEIMVKFRDNAPLKKLDSHTQSGGERAVSTVLYMIALQEFTSAPFRVVDEINQGMDSRNERIVHKAMVENACAENTSQYFLITPKLLTGLHYHEKMRIHCVMAGSWIPNPSEDPKMIHFGETSNYSFD
B3: Nse3 (natural protein)
chain: MSSIDNDSDVDLTEDLAVAKIVKENPVARKMVRYILSRGESQNSIITRNKLQSVIHEAAREENIAKPSFSKMFMDINAILYNVYGFELQGLPSKNNMNAGGNGSNSNTNKSMPEPLGHRAQKFILLNNVPHSKNFDDFKILQSAHTYEELIVTGEYIGDDIASGTSNTLESKLSTDRDLVYKGVLSVILCIVFFSKNNILHQELIKFLETFGIPSDGSKIAILNITIEDLIKSLEKREYIVRLEEKSDTDGEVISYRIGRRTQAELGLESLEKLVQEIMGLEKEQTKSLHDDIIKSIGDSYSI
B4: Nse4 with 8xHis and 3xHA tags (natural protein)
chain: MSSTVISRKRRNSTVTEPDSSGETRKQKKSRSDEKSSSSKDGDPQLEFKVLQGYRDLESEMHKGRAQVTRTGDIGVAMDNLNAVDSLFNKVIGIKNNGLFAHDARAMVSISELAQISVRNLKFDDSRSMVNLENIVNSLKRYMLKEHFKLNNIAENRNDLTLAADEQSAADQQEESDGDIDRTPDDNHTDKATSSFKATSMRHSYLQQFSHYNEFSQFNWFRIGALYNTISKNAPITDHLMGPLSIEKKPRVLTQRRRNNDQVGEKITAEKITQHSLNSTQQETTPEQVKKCFKKLSKKLGPEGSINLFKFIIDPNSFSRSIENLFYTSFLIKEGKLLMEHDEEGLPTIKIKQSISHTDSRSKEIERQRRRAAHQNHIIFQMDMPTWRKLIKKYNITSPFLD
B5: Nse5 (natural protein)
chain: MDGALINSVLYVSPRNGAHYFVELTEKHLLAFEMLNSMCLLENYDHVLLFLECQFGKSHNLAVIPFDIILVLFTLSTLSEYYKEPILRANDPYNTSRETLSRRALKLLQKYLAILKEFDSEQYNLYDLELLRCQFFLAIDTLTPKKQKWGFDRFRRTKSESGVTYRQNASVDPELDQAKTFKNPYRSYISCLEQRNTILGNRLLNLKLNEPGEFINMILWTLSNSLQESTPLFLSSHEIWMPLLEILIDLFSCRQDYFIQHEVAQNVSKSLFVQRLSESPLAVFFESLNTRNFANRFSEYVFLNCDYKLPSDNYATPVHPVYNGENTIVDTYIPTIKCSPLYKSQKSLALRRKLIGSCFKLLLRVPDGHRLITPRIVADDVIQGISRTLASFNDILQFKKFFMTENLSQESYFIPLLAEGTLSEILKDTQECVVILTLVENLSDGVSFCNEVIGLVKSKCFAFTEQCSQASYEEAVLNIEKCDVCLLVLLRYLLHLIGTEAILDAKEQLEMLHAIEKNDSGRRQWAKALNLGNDPPLLYPIVSQMFGVHDKSVIIE
B6: Nse1 (natural protein)
chain: MEVHEEQVSAPVTGDATAKYLLQYILSARGICHENALILALMRLETDASTLNTEWSIQQWVDKLNDYINAINVKLNLLGYKIIRINHGIGRNAVTLKAKQNFESFEDNTAIRAHNNDYAVLQSIVLPESNRFFVYVNLASTEETKLATRFNQNEIEFMKWAIEQFMISGETIVEGPALETSIIVKEVNRILVAATGDSNLAKWRKFSTFTVGSTNLFQFQELTATDIEDLLLRLCELKWFYRTQEGKFGIDLRCIAELEEYLTSMYNLNTCQNCHKLAIQGVRCGNESCREENEETGENSLSQIWHVDCFKHYITHVSKNCDRCGSSLITEGVYVI

Legend:
Smc5 = target: B2; assay: cross-linking
[1] = target: T1, Smc6 with a triple StrepII tag; assay: cross-linking
[2] = target: T1, Smc6 with a triple StrepII tag; assay: affinity purification with mass spectrometry
[3] = target: B4; assay: cross-linking

binding result (Smc5) | binding result [1] | binding result [2] | binding result [3] | Binder
binds | binds | – | – | B1
– | – | binds | – | B2
binds | binds | – | binds | B3
binds | binds | – | – | B4
binds | binds | – | – | B5
binds | binds | – | – | B6
